Laboratory results from patent US20260001928A1 (CORTERIA PHARMACEUTICALS, priority 2022, published 2026).
*1 amine or outer side, *2 acyl side, *3 side chain or, on linkers, in order; H or OH if unused. Primed or numbered codes have the meaning given here. Where no end group is shown, it is not given here. Side-chain parts run from the residue outwards. [ ]: non-standard residue; d: D form. The star is where a group is joined. Thp′ = 4-amino-tetrahydro-2H-pyran-4-yl-acetic acid, O=C(CC1(N[*:1])CCOCC1)[*:2]; C20 diacid = O=C(O)CCCCCCCCCCCCCCCCCCC(=O)*; C18 diacid = O=C(O)CCCCCCCCCCCCCCCCC(=O)*; C16 diacid = O=C(O)CCCCCCCCCCCCCCC(=O)*; γGlu = O=C(O)[C@H](CCC(=O)[*:2])N[*:1]; NMeI = CC[C@H](C)[C@H](NC)C(=O)O; Thp″ = not defined here; Pentanoyl = CCCCC(=O)*; AEEA = NCCOCCOCC(=O)O; Aib = CC(C)(N)C(=O)O

T1: CRF1R receptor (UniProt P34998 24-415, limits assumed)
T1 sequence (looked up): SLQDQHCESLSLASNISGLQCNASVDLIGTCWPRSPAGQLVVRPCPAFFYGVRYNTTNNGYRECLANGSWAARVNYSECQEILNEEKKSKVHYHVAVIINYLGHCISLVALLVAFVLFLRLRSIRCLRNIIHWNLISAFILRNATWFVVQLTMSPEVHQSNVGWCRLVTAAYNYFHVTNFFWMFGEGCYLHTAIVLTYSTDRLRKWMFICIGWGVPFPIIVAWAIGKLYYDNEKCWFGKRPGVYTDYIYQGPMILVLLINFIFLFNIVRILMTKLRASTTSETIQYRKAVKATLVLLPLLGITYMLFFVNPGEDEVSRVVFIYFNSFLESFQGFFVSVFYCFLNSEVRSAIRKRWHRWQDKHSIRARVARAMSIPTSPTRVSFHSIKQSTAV

B1: SEQ ID NO 150 (peptide)
peptide: H-IVLSLD[dV]PIKLK([AEEA-AEEA-γGlu-C18 diacid])QILLKQERQKKQREQAEKNKQILEQV-NH2
SMILES: CC[C@H](C)[C@H](N)C(=O)N[C@H](C(=O)N[C@@H](CC(C)C)C(=O)N[C@@H](CO)C(=O)N[C@@H](CC(C)C)C(=O)N[C@@H](CC(=O)O)C(=O)N[C@@H](C(=O)N1CCC[C@H]1C(=O)N[C@H](C(=O)N[C@@H](CCCCN)C(=O)N[C@@H](CC(C)C)C(=O)N[C@@H](CCCCNC(=O)COCCOCCNC(=O)COCCOCCNC(=O)CC[C@H](NC(=O)CCCCCCCCCCCCCCCCC(=O)O)C(=O)O)C(=O)N[C@@H](CCC(N)=O)C(=O)N[C@H](C(=O)N[C@@H](CC(C)C)C(=O)N[C@@H](CC(C)C)C(=O)N[C@@H](CCCCN)C(=O)N[C@@H](CCC(N)=O)C(=O)N[C@@H](CCC(=O)O)C(=O)N[C@@H](CCCNC(=N)N)C(=O)N[C@@H](CCC(N)=O)C(=O)N[C@@H](CCCCN)C(=O)N[C@@H](CCCCN)C(=O)N[C@@H](CCC(N)=O)C(=O)N[C@@H](CCCNC(=N)N)C(=O)N[C@@H](CCC(=O)O)C(=O)N[C@@H](CCC(N)=O)C(=O)N[C@@H](C)C(=O)N[C@@H](CCC(=O)O)C(=O)N[C@@H](CCCCN)C(=O)N[C@@H](CC(N)=O)C(=O)N[C@@H](CCCCN)C(=O)N[C@@H](CCC(N)=O)C(=O)N[C@H](C(=O)N[C@@H](CC(C)C)C(=O)N[C@@H](CCC(=O)O)C(=O)N[C@@H](CCC(N)=O)C(=O)N[C@H](C(N)=O)C(C)C)[C@@H](C)CC)[C@@H](C)CC)[C@@H](C)CC)C(C)C)C(C)C
B2: SEQ ID NO 13 (peptide)
peptide: H-IVLSLD[dV]PIKLK([γGlu-C16 diacid])QILLKQERQKKQREQAEKNVQILEQV-NH2
SMILES: CC[C@H](C)[C@H](N)C(=O)N[C@H](C(=O)N[C@@H](CC(C)C)C(=O)N[C@@H](CO)C(=O)N[C@@H](CC(C)C)C(=O)N[C@@H](CC(=O)O)C(=O)N[C@@H](C(=O)N1CCC[C@H]1C(=O)N[C@H](C(=O)N[C@@H](CCCCN)C(=O)N[C@@H](CC(C)C)C(=O)N[C@@H](CCCCNC(=O)CC[C@H](NC(=O)CCCCCCCCCCCCCCC(=O)O)C(=O)O)C(=O)N[C@@H](CCC(N)=O)C(=O)N[C@H](C(=O)N[C@@H](CC(C)C)C(=O)N[C@@H](CC(C)C)C(=O)N[C@@H](CCCCN)C(=O)N[C@@H](CCC(N)=O)C(=O)N[C@@H](CCC(=O)O)C(=O)N[C@@H](CCCNC(=N)N)C(=O)N[C@@H](CCC(N)=O)C(=O)N[C@@H](CCCCN)C(=O)N[C@@H](CCCCN)C(=O)N[C@@H](CCC(N)=O)C(=O)N[C@@H](CCCNC(=N)N)C(=O)N[C@@H](CCC(=O)O)C(=O)N[C@@H](CCC(N)=O)C(=O)N[C@@H](C)C(=O)N[C@@H](CCC(=O)O)C(=O)N[C@@H](CCCCN)C(=O)N[C@@H](CC(N)=O)C(=O)N[C@H](C(=O)N[C@@H](CCC(N)=O)C(=O)N[C@H](C(=O)N[C@@H](CC(C)C)C(=O)N[C@@H](CCC(=O)O)C(=O)N[C@@H](CCC(N)=O)C(=O)N[C@H](C(N)=O)C(C)C)[C@@H](C)CC)C(C)C)[C@@H](C)CC)[C@@H](C)CC)C(C)C)C(C)C
B3: SEQ ID NO 228 (peptide)
peptide: Pentanoyl-VLSLD[dV]PIGLK([γGlu-C20 diacid])KILLEQEKQKKQREQAETN[Aib]QILAQV-NH2
SMILES: CCCCC(=O)N[C@H](C(=O)N[C@@H](CC(C)C)C(=O)N[C@@H](CO)C(=O)N[C@@H](CC(C)C)C(=O)N[C@@H](CC(=O)O)C(=O)N[C@@H](C(=O)N1CCC[C@H]1C(=O)N[C@H](C(=O)NCC(=O)N[C@@H](CC(C)C)C(=O)N[C@@H](CCCCNC(=O)CC[C@H](NC(=O)CCCCCCCCCCCCCCCCCCC(=O)O)C(=O)O)C(=O)N[C@@H](CCCCN)C(=O)N[C@H](C(=O)N[C@@H](CC(C)C)C(=O)N[C@@H](CC(C)C)C(=O)N[C@@H](CCC(=O)O)C(=O)N[C@@H](CCC(N)=O)C(=O)N[C@@H](CCC(=O)O)C(=O)N[C@@H](CCCCN)C(=O)N[C@@H](CCC(N)=O)C(=O)N[C@@H](CCCCN)C(=O)N[C@@H](CCCCN)C(=O)N[C@@H](CCC(N)=O)C(=O)N[C@@H](CCCNC(=N)N)C(=O)N[C@@H](CCC(=O)O)C(=O)N[C@@H](CCC(N)=O)C(=O)N[C@@H](C)C(=O)N[C@@H](CCC(=O)O)C(=O)N[C@H](C(=O)N[C@@H](CC(N)=O)C(=O)NC(C)(C)C(=O)N[C@@H](CCC(N)=O)C(=O)N[C@H](C(=O)N[C@@H](CC(C)C)C(=O)N[C@@H](C)C(=O)N[C@@H](CCC(N)=O)C(=O)N[C@H](C(N)=O)C(C)C)[C@@H](C)CC)[C@@H](C)O)[C@@H](C)CC)[C@@H](C)CC)C(C)C)C(C)C
B4: SEQ ID NO 229 (peptide)
peptide: [NMeI]VLSLD[dV]PIGLK([γGlu-C20 diacid])KILLEQEKQKKQREQAETN[Aib]QILAQV-NH2
modifications: N-terminus assumed
SMILES: CC[C@H](C)[C@H](NC)C(=O)N[C@H](C(=O)N[C@@H](CC(C)C)C(=O)N[C@@H](CO)C(=O)N[C@@H](CC(C)C)C(=O)N[C@@H](CC(=O)O)C(=O)N[C@@H](C(=O)N1CCC[C@H]1C(=O)N[C@H](C(=O)NCC(=O)N[C@@H](CC(C)C)C(=O)N[C@@H](CCCCNC(=O)CC[C@H](NC(=O)CCCCCCCCCCCCCCCCCCC(=O)O)C(=O)O)C(=O)N[C@@H](CCCCN)C(=O)N[C@H](C(=O)N[C@@H](CC(C)C)C(=O)N[C@@H](CC(C)C)C(=O)N[C@@H](CCC(=O)O)C(=O)N[C@@H](CCC(N)=O)C(=O)N[C@@H](CCC(=O)O)C(=O)N[C@@H](CCCCN)C(=O)N[C@@H](CCC(N)=O)C(=O)N[C@@H](CCCCN)C(=O)N[C@@H](CCCCN)C(=O)N[C@@H](CCC(N)=O)C(=O)N[C@@H](CCCNC(=N)N)C(=O)N[C@@H](CCC(=O)O)C(=O)N[C@@H](CCC(N)=O)C(=O)N[C@@H](C)C(=O)N[C@@H](CCC(=O)O)C(=O)N[C@H](C(=O)N[C@@H](CC(N)=O)C(=O)NC(C)(C)C(=O)N[C@@H](CCC(N)=O)C(=O)N[C@H](C(=O)N[C@@H](CC(C)C)C(=O)N[C@@H](C)C(=O)N[C@@H](CCC(N)=O)C(=O)N[C@H](C(N)=O)C(C)C)[C@@H](C)CC)[C@@H](C)O)[C@@H](C)CC)[C@@H](C)CC)C(C)C)C(C)C
B5: SEQ ID NO 230 (peptide)
peptide: Ac-IVLSLD[dV]PIKLK([AEEA-γGlu-C20 diacid])KILLEQEKQKKQREQAETN[Aib]QILAQV-NH2
SMILES: CC[C@H](C)[C@H](NC(C)=O)C(=O)N[C@H](C(=O)N[C@@H](CC(C)C)C(=O)N[C@@H](CO)C(=O)N[C@@H](CC(C)C)C(=O)N[C@@H](CC(=O)O)C(=O)N[C@@H](C(=O)N1CCC[C@H]1C(=O)N[C@H](C(=O)N[C@@H](CCCCN)C(=O)N[C@@H](CC(C)C)C(=O)N[C@@H](CCCCNC(=O)COCCOCCNC(=O)CC[C@H](NC(=O)CCCCCCCCCCCCCCCCCCC(=O)O)C(=O)O)C(=O)N[C@@H](CCCCN)C(=O)N[C@H](C(=O)N[C@@H](CC(C)C)C(=O)N[C@@H](CC(C)C)C(=O)N[C@@H](CCC(=O)O)C(=O)N[C@@H](CCC(N)=O)C(=O)N[C@@H](CCC(=O)O)C(=O)N[C@@H](CCCCN)C(=O)N[C@@H](CCC(N)=O)C(=O)N[C@@H](CCCCN)C(=O)N[C@@H](CCCCN)C(=O)N[C@@H](CCC(N)=O)C(=O)N[C@@H](CCCNC(=N)N)C(=O)N[C@@H](CCC(=O)O)C(=O)N[C@@H](CCC(N)=O)C(=O)N[C@@H](C)C(=O)N[C@@H](CCC(=O)O)C(=O)N[C@H](C(=O)N[C@@H](CC(N)=O)C(=O)NC(C)(C)C(=O)N[C@@H](CCC(N)=O)C(=O)N[C@H](C(=O)N[C@@H](CC(C)C)C(=O)N[C@@H](C)C(=O)N[C@@H](CCC(N)=O)C(=O)N[C@H](C(N)=O)C(C)C)[C@@H](C)CC)[C@@H](C)O)[C@@H](C)CC)[C@@H](C)CC)C(C)C)C(C)C
B6: SEQ ID NO 199 (peptide)
peptide: Ac-IVLSLD[dV]PIKLK([γGlu-C18 diacid])KILLEQEKQKKQREQAETN[Thp′]QILAQV-NH2
SMILES: CC[C@H](C)[C@H](NC(C)=O)C(=O)N[C@H](C(=O)N[C@@H](CC(C)C)C(=O)N[C@@H](CO)C(=O)N[C@@H](CC(C)C)C(=O)N[C@@H](CC(=O)O)C(=O)N[C@@H](C(=O)N1CCC[C@H]1C(=O)N[C@H](C(=O)N[C@@H](CCCCN)C(=O)N[C@@H](CC(C)C)C(=O)N[C@@H](CCCCNC(=O)CC[C@H](NC(=O)CCCCCCCCCCCCCCCCC(=O)O)C(=O)O)C(=O)N[C@@H](CCCCN)C(=O)N[C@H](C(=O)N[C@@H](CC(C)C)C(=O)N[C@@H](CC(C)C)C(=O)N[C@@H](CCC(=O)O)C(=O)N[C@@H](CCC(N)=O)C(=O)N[C@@H](CCC(=O)O)C(=O)N[C@@H](CCCCN)C(=O)N[C@@H](CCC(N)=O)C(=O)N[C@@H](CCCCN)C(=O)N[C@@H](CCCCN)C(=O)N[C@@H](CCC(N)=O)C(=O)N[C@@H](CCCNC(=N)N)C(=O)N[C@@H](CCC(=O)O)C(=O)N[C@@H](CCC(N)=O)C(=O)N[C@@H](C)C(=O)N[C@@H](CCC(=O)O)C(=O)N[C@H](C(=O)N[C@@H](CC(N)=O)C(=O)NC1(CC(=O)N[C@@H](CCC(N)=O)C(=O)N[C@H](C(=O)N[C@@H](CC(C)C)C(=O)N[C@@H](C)C(=O)N[C@@H](CCC(N)=O)C(=O)N[C@H](C(N)=O)C(C)C)[C@@H](C)CC)CCOCC1)[C@@H](C)O)[C@@H](C)CC)[C@@H](C)CC)C(C)C)C(C)C

The binders below were run against human corticotropin-releasing factor 2a (CRF2a receptor) (human), Q13324 (assay: cell-based or functional assay).
Sequence of human corticotropin-releasing factor 2a (CRF2a receptor) (human), Q13324 (Q13324 20-411): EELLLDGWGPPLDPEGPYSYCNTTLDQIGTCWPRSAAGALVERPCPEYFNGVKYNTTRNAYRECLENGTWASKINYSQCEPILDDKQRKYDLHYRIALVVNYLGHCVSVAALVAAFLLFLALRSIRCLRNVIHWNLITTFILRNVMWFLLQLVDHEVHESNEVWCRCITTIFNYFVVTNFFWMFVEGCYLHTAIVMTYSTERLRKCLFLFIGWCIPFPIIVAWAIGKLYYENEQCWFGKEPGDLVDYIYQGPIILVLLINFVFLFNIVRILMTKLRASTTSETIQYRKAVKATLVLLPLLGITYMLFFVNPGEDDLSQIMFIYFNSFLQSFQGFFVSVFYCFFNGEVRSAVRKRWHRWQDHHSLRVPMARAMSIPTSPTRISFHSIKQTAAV

Q: With Ac-IVLSLD[dV]PIKLK([γGlu-C18 diacid])KILLEQEKQKKQREQAETN[Thp″]QILAQV-NH2 (not fully specified; reading uncertain) as the binder, how does the EC50 [nM] (cAMP) read?
A: 0.16 nM

Q: B1 was tested. Which EC50 [nM] (cAMP) did it give?
A: 0.25 nM

Q: With B2 as the binder, how does the EC50 [nM] (cAMP) read?
A: 0.15 nM

Q: For B3, which EC50 [nM] (cAMP) is on record?
A: 0.19 nM

Q: Which EC50 [nM] (cAMP) does the source give for B4 here?
A: 0.11 nM

Q: How did the EC50 [nM] (cAMP) turn out when B5 was run?
A: 0.16 nM

Each binder was assayed against T1, CRF1R receptor (assay: cell-based or functional assay).

Q: With B6 as the binder, how does the “Emax (% I)” value read?
A: 11%
